One molecule from PMC11674933, “Discovery of Carbonic Anhydrase 9 as a Novel CLEC2 Ligand in a Cellular Interactome Screen” (Cells, 2024) can be followed below.

This test addresses CA9^38−414-His-avi (human, UniProt Q16790, biotin (biotinylated)). Nature of the test: AlphaScreen or HTRF; validation of the AlphaLISA set-up (Figure S6) with tagged G250 against a control library protein; CA9 on the beads at 15 nM or 60 nM. The following applies: one partner purified.

B1: 2E3 tagged Girentuximab (G250) (antibody, V domains shown)
VH: DVKLVESGGGLVKLGGSLKLSCAASGFTFSNYYMSWVRQTPEKRLELVAAINSDGGITYYLDTVKGRFTISRDNAKNTLYLQMSSLKSEDTALFYCARHRSGYFSMDYWGQGTSVTVSS
VL: DIVMTQSQRFMSTTVGDRVSITCKASQNVVSAVAWYQQKPGQSPKLLIYSASNRYTGVPDRFTGSGSGTDFTLTISNMQSEDLADFFCQQYSNYPWTFGGGTKLEIK
notes: tagged versions of Girentuximab (G250); also called anti-CA9; G250 constructs
Regarding B1, the binding result was “binds”.
